In US20140072613A1 (published 2014):

What was measured:
Experiment in all cases: cell-based or functional assay
[1] = molecular target: PKCθ(h) (human, UniProt Q04759 1-706)
[2] = molecular target: PAK6(h) (human, UniProt Q9NQU5 1-681, limits assumed)
[3] = molecular target: Rsk4(h) (human, UniProt Q9UK32 1-745, limits assumed)
[4] = molecular target: PKCβII(h) (human, UniProt P05771-2 1-673)
[5] = molecular target: MLK1(h) (human, UniProt P80192 132-413, limits assumed)
[6] = molecular target: T1, GRK7(h) (human, UniProt Q8WTQ7 1-553)
T1 sequence (looked up): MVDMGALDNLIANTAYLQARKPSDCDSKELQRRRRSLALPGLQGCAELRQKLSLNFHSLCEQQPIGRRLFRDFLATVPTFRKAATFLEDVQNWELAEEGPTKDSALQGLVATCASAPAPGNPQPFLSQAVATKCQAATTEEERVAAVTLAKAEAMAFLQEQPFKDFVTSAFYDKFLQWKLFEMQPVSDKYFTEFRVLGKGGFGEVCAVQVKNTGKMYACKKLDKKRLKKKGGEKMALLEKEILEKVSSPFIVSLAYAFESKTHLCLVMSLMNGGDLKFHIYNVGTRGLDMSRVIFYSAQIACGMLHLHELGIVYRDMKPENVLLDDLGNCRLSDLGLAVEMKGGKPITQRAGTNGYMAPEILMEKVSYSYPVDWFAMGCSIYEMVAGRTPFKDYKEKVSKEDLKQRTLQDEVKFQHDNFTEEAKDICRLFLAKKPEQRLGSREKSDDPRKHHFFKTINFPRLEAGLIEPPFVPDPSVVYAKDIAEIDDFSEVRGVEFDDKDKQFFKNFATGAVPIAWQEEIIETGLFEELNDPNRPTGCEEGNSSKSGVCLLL

[7] = molecular target: FGFR3(h) (human, UniProt P22607 397-806)
[8] = molecular target: EGFR(L861Q)(h) (human, UniProt P00533 696-1210, limits assumed)
[9] = molecular target: PKCγ(h) (human, UniProt P05129 1-697)
[10] = molecular target: cKit(h) (human, UniProt P10721 544-976)
[11] = molecular target: T2, PKD2(h) (human, UniProt Q9BZL6 1-878)
T2 sequence (looked up): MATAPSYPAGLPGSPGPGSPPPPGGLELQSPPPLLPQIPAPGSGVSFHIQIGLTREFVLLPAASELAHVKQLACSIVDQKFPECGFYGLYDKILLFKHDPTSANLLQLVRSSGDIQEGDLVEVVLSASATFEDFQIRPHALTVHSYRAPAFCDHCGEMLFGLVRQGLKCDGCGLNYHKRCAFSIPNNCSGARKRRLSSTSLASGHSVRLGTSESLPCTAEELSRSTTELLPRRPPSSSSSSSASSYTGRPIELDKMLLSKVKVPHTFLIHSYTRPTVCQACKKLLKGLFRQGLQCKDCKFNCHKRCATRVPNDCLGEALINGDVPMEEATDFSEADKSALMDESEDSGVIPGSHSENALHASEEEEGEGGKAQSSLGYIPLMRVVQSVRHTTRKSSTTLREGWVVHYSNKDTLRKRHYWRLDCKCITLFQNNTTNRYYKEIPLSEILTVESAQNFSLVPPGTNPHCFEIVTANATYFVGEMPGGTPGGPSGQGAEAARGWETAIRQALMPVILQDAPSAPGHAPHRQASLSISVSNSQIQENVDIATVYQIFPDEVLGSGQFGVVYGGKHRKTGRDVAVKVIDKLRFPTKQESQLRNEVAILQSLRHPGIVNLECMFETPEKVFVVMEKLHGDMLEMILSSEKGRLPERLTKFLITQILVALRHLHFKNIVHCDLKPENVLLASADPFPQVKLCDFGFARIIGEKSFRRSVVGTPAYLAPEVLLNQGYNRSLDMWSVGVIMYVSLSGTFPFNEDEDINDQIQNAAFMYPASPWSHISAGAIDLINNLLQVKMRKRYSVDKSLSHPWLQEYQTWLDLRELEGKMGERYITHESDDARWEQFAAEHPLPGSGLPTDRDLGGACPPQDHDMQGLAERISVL

[12] = molecular target: ALK(h) (human, UniProt Q9UM73 1058-1620, limits assumed)
[13] = molecular target: Tie2(h) (human, UniProt Q02763 771-1124, limits assumed)
[14] = molecular target: T3, PDK1(h) (human, UniProt O15530 1-556, limits assumed)
T3 sequence (looked up): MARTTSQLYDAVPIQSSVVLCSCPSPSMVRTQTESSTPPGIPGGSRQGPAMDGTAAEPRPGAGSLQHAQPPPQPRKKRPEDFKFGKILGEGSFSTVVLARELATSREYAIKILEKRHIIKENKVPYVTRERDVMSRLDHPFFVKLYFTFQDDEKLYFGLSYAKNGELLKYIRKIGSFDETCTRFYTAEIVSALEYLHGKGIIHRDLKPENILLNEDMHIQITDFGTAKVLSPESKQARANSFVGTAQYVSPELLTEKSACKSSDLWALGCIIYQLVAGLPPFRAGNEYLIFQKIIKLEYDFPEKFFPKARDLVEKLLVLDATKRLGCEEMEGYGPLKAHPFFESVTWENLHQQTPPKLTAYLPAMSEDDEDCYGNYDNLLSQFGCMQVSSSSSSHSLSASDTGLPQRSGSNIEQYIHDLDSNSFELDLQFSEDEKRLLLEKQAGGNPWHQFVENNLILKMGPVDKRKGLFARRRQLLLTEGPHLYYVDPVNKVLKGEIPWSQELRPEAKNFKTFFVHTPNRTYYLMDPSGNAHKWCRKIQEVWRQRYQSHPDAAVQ

[15] = molecular target: CDK3/cyclinE(h) (human, UniProt Q00526 1-305; P24864 1-410)
[16] = molecular target: PKBβ(h) (human, UniProt P31751 1-481, limits assumed)
[17] = molecular target: SRPK1(h) (human, UniProt Q96SB4 1-655)

Row | Binder | % activity, 100 µM [1] [%] | % activity, 100 µM [2] [%] | % activity, 100 µM [3] [%] | % activity, 100 µM [4] [%] | % activity, 100 µM [5] [%] | % activity, 100 µM [6] [%] | % activity, 100 µM [7] [%] | % activity, 100 µM [8] [%] | % activity, 100 µM [9] [%] | % activity, 100 µM [10] [%] | % activity, 100 µM [11] [%] | % activity, 100 µM [12] [%] | % activity, 100 µM [13] [%] | % activity, 100 µM [14] [%] | % activity, 100 µM [15] [%] | % activity, 100 µM [16] [%] | % activity, 100 µM [17] [%]
1 | KAFAKLAARLYRKALARQLGVAA [MMI-0400] | 76 | 100 | 91 | 75 | 33 | 100 | 0 | 22 | 79 | 43 | 25 | 16 | 21 | 159 | 92 | 98 | 96
2 | FAKLAARLYRKALARQLGVAA [MMI-0300] | 88 | 104 | 90 | 82 | 40 | 122 | 102 | 25 | 89 | 53 | 33 | 19 | 26 | 135 | 94 | 84 | 90
